These results are taken from publication PMC3904923.

For test [1], the target named is dansylated calmodulin (rat) (UniProt P0DP30). Put plainly: other fluorescence titration; 12.5 nM D-CaM, ligand added incrementally, enhancement of dansyl emission; D-CaM binding buffer with 3.9 µM free Ca2+ (9.63 mM Ca2+, 2 mM Mg2+, 10 mM EGTA, pH 7.4); apparent affinity (EC50 of a Hill fit).
The target is the same in test [2]. Put plainly: other fluorescence titration; 12.5 nM D-CaM, ligand added incrementally, enhancement of dansyl emission; 25 mM Tris-HCl, 120 mM KCl, 5 mM NaCl, 2 mM MgCl2, 10 mM EGTA, pH 7.4; no free Ca2+; apparent affinity (EC50 of a Hill fit).
In test [3] the target is Kv7.2 helix B (hB residues S450–S590) (human). Put plainly: other fluorescence titration; competition: 12.5 nM D-CaM mixed with helix A (46.4 nM) or helix B (20.1 nM), isolated lobe added incrementally; no Ca2+; one site Hill fit, Kd derived assuming 1:1 binding.
For test [4] the target is unchanged. Put plainly: other fluorescence titration; competition: 12.5 nM D-CaM mixed with helix A (65.6 nM) or helix B (42.6 nM), isolated lobe added incrementally; with Ca2+; one site Hill fit, Kd derived assuming 1:1 binding.

For orientation: EC50 means the concentration needed to bring the measured effect to its halfway point. Take “Kv7.2 CaM binding domain (residues 310–548), Q2AB WT (domain or fragment)”: the results for the EC50 in test [1] and in test [2] were 27.1 nM and 11 nM, respectively.

A word on the IC50: it is the concentration needed to halve the response being measured. A lower IC50 goes with greater potency in that assay. Usually Kd stands for the constant that tells how readily two partners part at equilibrium. A lower Kd goes with higher affinity. On to “CaM N-lobe (residues 1–78) (from UniProt P0DP23 2-79) (domain or fragment)”, for which the IC50 in test [3] was 130 nM; in test [4], 415 nM. Moreover, the Kd was 119 nM in test [3] and 414 nM in test [4].

On to “CaM C-lobe (residues 79–148) (from UniProt P0DP23 80-149) (domain or fragment)”, for which the IC50 in test [3] is 238 nM; in test [4], 244 nM. The Kd worked out at 231 nM in test [3] and 229 nM in test [4].

With “Kv7.2 helix B (hB residues S450–S590) (domain or fragment)”, the EC50 in test [1] amounted to 42.6 nM; in test [2] it was 20.1 nM.
